Measured values from US10632208B2, “Peptide-mediated drug delivery across epithelial barrier” (Purdue Research Foundation, priority 2017, dated 2020).

Key:
NF-κB(p65) [1] = assay: Immunoblot of NF-κB activation in Caco-2 cytoplasmic and nuclear extracts; assay type: cell-based, human; details: LAP 1000 ng/mL or TNF-α 10 ng/mL
Experimental: To extract the proteins from Caco-2 cells, cells were seeded in 6-well plates for 14-21 days. Following treatment, the cells were washed, scraped from the bottom of 6-well plates, suspended in PBS, and pelleted by centrifugation. Total protein from Caco-2 cells was extracted using the M-PER Extraction Kit (Thermo Fisher Scientific). Detergent-insoluble (membrane) and detergent-soluble (cytosolic) proteins were isolated using a Mem-Per Eukaryotic Protein Extraction Kit (Thermo Fisher Scientific) while the cytosolic and nuclear proteins were extracted using NE-PER Extraction Reagent (Thermo Fisher Scientific). To extract proteins from ileal epithelial cells, the epithelial cell fraction from ileal tissues were isolated as described above and the detergent-insoluble and the detergent-soluble proteins were isolated using a Mem-Per Eukaryotic Protein Extraction Kit.
To extract total protein from intact bacterial cells, sample solvent buffer and sonication (3 cycles of […]) were used. To isolate the cell wall-associated proteins bacterial pellets were resuspended in 0.5 ml protein extraction buffer (0.5% SDS, 10 mM Tris at pH 6.9), and incubated at 37° C. for 30 min with agitation. The samples were centrifuged (14,000×g, 10 min, 4° C.), and the supernatants (containing cell wall-associated proteins) were retained. Halt proteases and phosphatase inhibitors (Thermo Fisher Scientific) were used during all of the protein extraction procedures. The protein concentrations were determined by BCA assay (Thermo Fisher Scientific), and separated on SDS-PAGE gels (10-12.5% polyacrylamide) and electro-transferred to polyvinylidene difluoride (PVDF) membrane (Millipore). The membranes were then blocked in 5% nonfat dry milk (NFDM) in 0.1 M Tris-buffered saline, pH 7.5 (TBS) containing 0.1% Tween 20 (TBST) for at least 1 h. All of the primary antibodies were diluted in 5% bovine serum albumin (BSA) or 5% NFDM in TBST and incubated overnight. Secondary antibodies (1:2000 in 5% NFDM in TBST) incubated for 1 h at 37° C., and a chemiluminescence method was performed using LumiGLO reagent (Cell Signaling). The membranes were exposed to X-ray films or visualized using the Chemi-Doc XRS system (Bio-Rad). To immunoprobe the same membrane with another antibody, the originally bound antibodies from the membranes were removed by incubating the membranes in Restore Western Blot Stripping Buffer (Thermo Fisher Scientific) according to the manufacturer's protocol. To compare the reaction intensities, the average band densities were determined using Quantity One software (Bio-Rad). Densitometry reports represent the mean±SEM after normalization to the loading control and is presented as % change of protein with the average for untreated cells (control) set at 100%. Immunoblots and densitometric reports are representative of 2-3 independent experiments.

NF-κB(p65) [2] = assay: Confocal immunofluorescence of p65 localization in Caco-2 cells; assay type: cell-based, human; details: 30 min
Experimental: For antibody labeling in cells, Caco-2 cells, were grown to 40-50% confluence in four-chambered slides (Millipore). At the end of the treatment, the cells were fixed with 3.7% formaldehyde in PBS for 20 min and permeabilized and blocked with PBS containing 0.3% Triton X-100 and 3% BSA (Sigma-Aldrich) for 1 h at room temperature and then incubated with respective antibodies overnight at 4° C. Following antibody incubation, the cells were washed with PBS (3 cycles, 5 min) and incubated with FITC or Alexa Fluor 555-conjugated secondary antibody for 2 h at room temperature. The nuclei were stained with DAPI (500 ng/ml; Cell signaling) and slides were mounted in ProLong antifade reagent (Cell Signaling).
All images were acquired using a Nikon A1R MP Multiphoton (Nikon) Confocal fluorescence microscope using a 60× oil immersion objective equipped with the Nikon Elements software (Nikon) at the Purdue Bioscience Imaging Facility. The X-Z and Y-Z cross-sections were produced by orthogonal reconstructions from z-stack scanning at 0.15 μm intervals taken with 60× objective in 5 μm thick paraffin embedded tissue section. Three-dimensional reconstructions were performed using Nikon elements software (Nikon).

NF-κB = NF-κB luciferase reporter assay in RAW 264.7 cells; assay type: cell-based, murine; details: for NF-κB activation by LAP domains (luciferase activity): 1 μg/mL each, 6 h; for NF-κB activation: purified proteins, LPS positive control
Experimental: The NF-κB Luciferase reporter RAW 264.7 cell line (Novus Biologicals), which expresses an optimized Renilla luciferase reporter gene (RenSP) under the transcriptional control of an NF-κB response element, was used. The cells were seeded (1×10^5 cells/well) into 96-well luminometer-compatible plates for 16 h and then treated with analytes for 6 h. Media from each well were aspirated, and then 100 μL of ice-cold PBS was added to each well. The plates were then frozen solid at −80° C. overnight to completely lyse the cells, thawed back to room temperature, and luciferase assays were performed using the LightSwitch Luciferase assay kit (Novus Biologicals). Luminescence was measured as the relative luminescence units (RLU) using Spectramax (Spectramax, Molecular Devices) and reported as the relative fold change compared with that of the control cells that were treated with media alone. Recombinant human or mouse TNF-α (R&D Systems) and polymyxin B, LPS (E. coli Serotype R515, Re, TLR grade), and proteinase K (each from Sigma-Aldrich) were used.

## TNF-α [reference compound]
NF-κB(p65) [1]
  time of appearance of cytoplasmic phospho-IκBα (Ser32): 15 min
  time of increase in nuclear p65 and P-p65: 30 min
NF-κB(p65) [2]; Caco-2 cells, LAP 1 μg/mL or TNF-α 10 ng/mL
  localization of p65: in the nucleus
NF-κB(p65) [2]; Hsp60 knocked-down Caco-2 cells
  localization of p65: slight reduction in the nuclear translocation of p65

B1: C1: LAP fragment C1 (Gly412-Val648); histidine-tagged form SEQ ID NO: 8 (protein)
chain: GGIGDIYNGFIPSLTLGCGSYGKNSVSQNVSATNLLNVKRIADRRNNMQWFKLPPKIFFEKYSTQYLQKMEGVERVFIVTDPGMGSFKYVDVVIEHLKKRGNDVAYQVFADVEPDPSDVTVYKGAELMKDFKPDTIIALGGGSAMDAAKGMWLFYEHPEASFFGLKQKFLDIRKRTFKYPKLGGKAKFVAIPTTSGTGSEVTPFAVITDKENNIKYPLADYELTPDVAIVDAQYVTTV
modifications: Listeria Adhesion Protein C1 domain
NF-κB
  NF-κB activation by LAP domains (luciferase activity): activity similar to the untreated control cells

B2: C2: LAP fragment C2 (Pro649-Val866); histidine-tagged form SEQ ID NO: 9 (protein)
chain: PAHITADTGMDVLTHAIESYVSVMASDYTRGLSIRAIELVFENLRESVLTGDPDAREKMHNASALAGMAFANAFLGINHSLAHKIGPEFHIPHGRANAILMPHVIRYNALKPKKHALFPRYESFRADEDYARISRIIGFPAATTEEGVKSLVDEIIKLGKDVGIDMSLKGQNVAKKDLDAVVDTLADRAFMDQCTTANPKQPLVSELKEIYLEAYKGV
modifications: Listeria Adhesion Protein C2 domain
NF-κB
  NF-κB activation by LAP domains (luciferase activity): activity similar to the untreated control cells

B3: N1: LAP fragment N1 (Met1-Pro223); histidine-tagged form SEQ ID NO: 7 (protein)
chain: MAIKENAAQEVLEVQKVIDRLADNGQKALKAFESYNQEQVDNIVHAMALAGLDQHMPLAKLAVEETGRGLYEDKCIKNIFATEYIWNNIKNNKTVGVINEDVQTGVIEIAEPVGVVAGVTPVTNPTSTTLFKAIIAIKTRNPIIFAFHPSAQRCSSAAAKVVYDAAIAAGAPEHCIQWVEKPSLEATKQLMNHDKVALVLATGGAGMVKSAYSTGKPALGVGP
modifications: Listeria Adhesion Protein N1 domain
NF-κB
  NF-κB activation by LAP domains (luciferase activity): activity similar to the untreated control cells

B4: InlB: purified recombinant InlB protein of Listeria (protein, UniProt P0DQD2 31-630, looked up)
Internalin B: AKVQAETITVPTPIKQIFSDDAFAETIKDNLKKKSVTDAVTQNELNSIDQIIANNSDIKSVQGIQYLPNVTKLFLNGNKLTDIKPLANLKNLGWLFLDENKVKDLSSLKDLKKLKSLSLEHNGISDINGLVHLPQLESLYLGNNKITDITVLSRLTKLDTLSLEDNQISDIVPLAGLTKLQNLYLSKNHISDLRALAGLKNLDVLELFSQECLNKPINHQSNLVVPNTVKNTDGSLVTPEIISDDGDYEKPNVKWHLPEFTNEVSFIFYQPVTIGKAKARFHGRVTQPLKEVYTVSYDVDGTVIKTKVEAGTRITAPKPPTKQGYVFKGWYTEKNGGHEWNFNTDYMSGNDFTLYAVFKAETTEKAVNLTRYVKYIRGNAGIYKLPREDNSLKQGTLASHRCKALTVDREARNGGKLWYRLKNIGWTKAENLSLDRYDKMEYDKGVTAYARVRNASGNSVWTKPYNTAGAKHVNKLSVYQGKNMRILREAKTPITTWYQFSIGGKVIGWVDTRALNTFYKQSMEKPTRLTRYVSANKAGESYYKVPVADNPVKRGTLAKYKNQKLIVDCQATIEGQLWYRIRTSSTFIGWTKAANLRAQK
NF-κB
  NF-κB activation ability after polymyxin-B treatment: retained the NF-κB activation ability
  NF-κB activation after proteinase-K treatment: abolished
  NF-κB activation: activated NF-κB
NF-κB; 100° C., 10 min
  NF-κB activation ability after heat treatment: abolished the NF-κB activation ability

B5: N2: LAP fragment N2 (Gly224-Gly411); histidine-tagged form SEQ ID NO: 3 (protein)
chain: GNVPAYIDKTAKIKRSVNDIILSKSFDQGMICASEQAVIVDKEVAKEVKAEMEANKCYFVKGAEFKKLESYVINPEKGTLNPDVVGKSPAWIANQAGFKVPEDTKILVAEIKGVGDKYPLSHEKLSPVLAFIEAANQAEAFDRCEEMLVYGGLGHSAVIHSTDKEVQKAFGIRMKACRIIVNAPSAQG
modifications: Listeria Adhesion Protein N2 domain
NF-κB
  NF-κB activation by LAP domains (luciferase activity): activated NF-κB nearly as effectively as the full-length LAP

B6: InlA: purified recombinant InlA, Listeria surface protein Internalin A (protein)
chain: ATITQDTPINQIFTDTALAEKMKTVLGKTNVTDTVSQTDLDQVTTLQADRLGIKSIDGVEYLNNLTQINFSNNQLTDITPLKNLTKLVDILMNNNQIADITPLANLTNLTGLTLFNNQITDIDPLKNLTNLNRLELSSNTISDISALSGLTSLQQLSFGNQVTDLKPLANLTTLERLDISSNKVSDISVLAKLTNLESLIATNNQISDITPLGILTNLDELSLNGNQLKDIGTLASLTNLTDLDLANNQISNLAPLSGLTKLTELKLGANQISNISPLAGLTALTNLELNENQLEDISPISNLKNLTYLTLYFNNISDISPVSSLTKLQRLFFYNNKVSDVSSLANLTNINWLSAGHNQISDLTPLANLTRITQLGLNDQAWTNAPVNYKANVSIPNTVKNVTGALIAPATISDGGSYTEPDITWNLPSYTNEVSYTFSQPVTIGKGTTTFSGTVTQPLKAIFNVKFHVDGKETTKEVEAGNLLTEPAKPVKEGHTFVGWFDAQTGGTKWNFSTDKMPTNDINLYAQFSINSYTATFDNDGVTTSQTVDYQGLLQEPTAPTKEGYTFKGWYDAKTGGDKWDFATSKMPAKNITLYAQYSANSYTATFDVDGKSTTQAVDYQGLLKEPKAPTKAGYTFKGWYDEKTDGKKWDFATDKMPANDITLYAQFTKNPVAPPTTGGNTPPTTNNGGNTTPPSANIPGSDTSNTSTGNSASTTSTMNAYDPYNSKEASLPTT
NF-κB
  NF-κB activation: neutral
